Results published in PMC5592140 (Cellular signalling, 2017).
Like-named read-outs stand apart in the source and are kept apart here. Values belong to the binder of their own block, whether it stands above or below them.

Tests used:
[1] = target: T1, GST-MLK4β (Mixed Lineage Kinase 4β) (human, UniProt Q5TCX8-1 1-1036); experiment: pull-down
[2] = target: T1, GST-MLK4β (Mixed Lineage Kinase 4β); experiment: pull-down; remark: listed apart in the source

T1 sequence (Q5TCX8 whole entry): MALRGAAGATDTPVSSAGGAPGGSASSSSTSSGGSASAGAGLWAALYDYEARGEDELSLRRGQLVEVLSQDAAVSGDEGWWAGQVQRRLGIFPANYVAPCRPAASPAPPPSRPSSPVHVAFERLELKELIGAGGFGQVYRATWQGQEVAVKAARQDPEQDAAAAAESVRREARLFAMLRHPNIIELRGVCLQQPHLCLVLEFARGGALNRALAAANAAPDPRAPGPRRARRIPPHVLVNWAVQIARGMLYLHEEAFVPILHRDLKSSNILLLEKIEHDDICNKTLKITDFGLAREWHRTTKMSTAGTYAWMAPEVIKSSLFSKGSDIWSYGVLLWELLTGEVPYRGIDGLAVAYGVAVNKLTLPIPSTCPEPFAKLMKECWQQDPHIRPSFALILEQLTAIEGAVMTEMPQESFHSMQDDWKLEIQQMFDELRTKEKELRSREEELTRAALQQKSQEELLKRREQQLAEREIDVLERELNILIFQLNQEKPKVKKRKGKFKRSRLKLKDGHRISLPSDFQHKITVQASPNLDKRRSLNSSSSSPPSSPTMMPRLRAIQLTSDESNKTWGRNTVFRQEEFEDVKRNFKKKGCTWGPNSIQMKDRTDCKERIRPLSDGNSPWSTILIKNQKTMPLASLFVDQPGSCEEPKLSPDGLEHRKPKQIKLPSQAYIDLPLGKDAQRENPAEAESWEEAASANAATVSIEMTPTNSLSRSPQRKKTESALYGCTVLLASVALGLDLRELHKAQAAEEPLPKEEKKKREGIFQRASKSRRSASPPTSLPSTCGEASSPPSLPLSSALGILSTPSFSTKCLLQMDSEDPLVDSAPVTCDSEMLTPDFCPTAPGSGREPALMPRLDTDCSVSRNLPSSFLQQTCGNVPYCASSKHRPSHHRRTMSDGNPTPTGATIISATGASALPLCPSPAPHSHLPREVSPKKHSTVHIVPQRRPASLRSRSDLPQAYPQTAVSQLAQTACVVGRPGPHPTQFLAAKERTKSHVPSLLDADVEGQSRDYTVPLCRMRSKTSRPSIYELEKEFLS

binding result [1]: binds
B1: His-MLK3 (Mixed Lineage Kinase 3) (enzyme, human, UniProt Q16584 1-847, looked up)
chain: MEPLKSLFLKSPLGSWNGSGSGGGGGGGGGRPEGSPKAAGYANPVWTALFDYEPSGQDELALRKGDRVEVLSRDAAISGDEGWWAGQVGGQVGIFPSNYVSRGGGPPPCEVASFQELRLEEVIGIGGFGKVYRGSWRGELVAVKAARQDPDEDISVTAESVRQEARLFAMLAHPNIIALKAVCLEEPNLCLVMEYAAGGPLSRALAGRRVPPHVLVNWAVQIARGMHYLHCEALVPVIHRDLKSNNILLLQPIESDDMEHKTLKITDFGLAREWHKTTQMSAAGTYAWMAPEVIKASTFSKGSDVWSFGVLLWELLTGEVPYRGIDCLAVAYGVAVNKLTLPIPSTCPEPFAQLMADCWAQDPHRRPDFASILQQLEALEAQVLREMPRDSFHSMQEGWKREIQGLFDELRAKEKELLSREEELTRAAREQRSQAEQLRRREHLLAQWELEVFERELTLLLQQVDRERPHVRRRRGTFKRSKLRARDGGERISMPLDFKHRITVQASPGLDRRRNVFEVGPGDSPTFPRFRAIQLEPAEPGQAWGRQSPRRLEDSSNGERRACWAWGPSSPKPGEAQNGRRRSRMDEATWYLDSDDSSPLGSPSTPPALNGNPPRPSLEPEEPKRPVPAERGSSSGTPKLIQRALLRGTALLASLGLGRDLQPPGGPGRERGESPTTPPTPTPAPCPTEPPPSPLICFSLKTPDSPPTPAPLLLDLGIPVGQRSAKSPRREEEPRGGTVSPPPGTSRSAPGTPGTPRSPPLGLISRPRPSPLRSRIDPWSFVSAGPRPSPLPSPQPAPRRAPWTLFPDSDPFWDSPPANPFQGGPQDCRAQTKDMGAQAPWVPEAGP

binding result [2]: binds
B2: FLAG-CHIP (carboxy-terminus of Hsc70-interacting protein) (enzyme, human, UniProt Q9UNE7 1-303, looked up)
chain: MKGKEEKEGGARLGAGGGSPEKSPSAQELKEQGNRLFVGRKYPEAAACYGRAITRNPLVAVYYTNRALCYLKMQQHEQALADCRRALELDGQSVKAHFFLGQCQLEMESYDEAIANLQRAYSLAKEQRLNFGDDIPSALRIAKKKRWNSIEERRIHQESELHSYLSRLIAAERERELEECQRNHEGDEDDSHVRAQQACIEAKHDKYMADMDELFSQVDEKRKKRDIPDYLCGKISFELMREPCITPSGITYDRKDIEEHLQRVGHFDPVTRSPLTQEQLIPNLAMKEVIDAFISENGWVEDY
